Reference: patent publication US20170037111A1, “Novel peptides and combination of peptides for use in immunotherapy against ovarian cancer and other cancers” (immatics biotechnologies GmbH, priority 2015, published 2017)

Molecular target: HLA-A*02:01 (Homo sapiens, UniProt P04439, D140Y/D185E/D98H/E176V/E277Q/G131W/G231S/I119V/I121R/I166T/I218V/L300P/L318F/N151K/N90K/P208A/P217A/Q86G/Q94H/R138H/R169H/T345S)
Assay: MHC binding assay (UV-ligand exchange, β2m ELISA, peptide exchange yield)
Conditions: MHC class I binding score; binding to HLA-A*02:01 ranged by peptide exchange yield (UV-ligand exchange, β2m ELISA)
Method in brief: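 Binding is expressed as peptide exchange yield: stabilized MHC complexes were quantified by β2m ELISA, with a 450 nm TMB read-out on streptavidin-coated plates. Complexes came from UV-ligand exchange, where UV irradiation cleaves a photolabile peptide so the candidate peptide can load.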

Substance | Peptide exchange
345 (VIWKALIHL; listed as Homo sapiens) [compound 345] | ″+++″ (≧50% = +++)
348 (ILLDVKTRL; listed as Homo sapiens) [compound 348] | ″++++″ (≧75% = ++++)
351 (SLIPNLRNV; listed as Homo sapiens) [compound 351] | ″+++″ (≧50% = +++)
353 (YLFEMDSSL; listed as Homo sapiens) [compound 353] | ″++″ (≧20% = ++)
355 (SIQQSIERLLV; listed as Homo sapiens) [compound 355] | ″++″ (≧20% = ++)
356 (KLLGKLPEL; listed as Homo sapiens) [compound 356] | ″+++″ (≧50% = +++)
357 (SMHDLVLQV; listed as Homo sapiens) [compound 357] | ″+++″ (≧50% = +++)
358 (ALDEYTSEL; listed as Homo sapiens) [compound 358] | ″++++″ (≧75% = ++++)
361 (ALYELEGTTV; listed as Homo sapiens) [compound 361] | ″+++″ (≧50% = +++)
364 (LLQNEQFEL; listed as Homo sapiens) [compound 364] | ″+++″ (≧50% = +++)
365 (YVIDQGETDVYV; listed as Homo sapiens) [compound 365] | ″+++″ (≧50% = +++)
367 (SLQNHNHQL; listed as Homo sapiens) [compound 367] | ″+++″ (≧50% = +++)
371 (FLQAHLHTA; listed as Homo sapiens) [compound 371] | ″++++″ (≧75% = ++++)
372 (TMLLNIPLV; listed as Homo sapiens) [compound 372] | ″++″ (≧20% = ++)
373 (SLLEDKGLAEV; listed as Homo sapiens) [compound 373] | ″++″ (≧20% = ++)
374 (FLLQQHLISA; listed as Homo sapiens) [compound 374] | ″++″ (≧20% = ++)
376 (AMFESSQNVLL; listed as Homo sapiens) [compound 376] | ″++″ (≧20% = ++)
377 (FLLDSSASV; listed as Homo sapiens) [compound 377] | ″++″ (≧20% = ++)
379 (IMEGTLTRV; listed as Homo sapiens) [compound 379] | ″++″ (≧20% = ++)
380 (TLIEDEIATI; listed as Homo sapiens) [compound 380] | ″++″ (≧20% = ++)
381 (FIDEAYVEV; listed as Homo sapiens) [compound 381] | ″++″ (≧20% = ++)
386 (ILFRYPLTI; listed as Homo sapiens) [compound 386] | ″+++″ (≧50% = +++)

Substance | Peptide exchange
387 (ALFQATAEV; listed as Homo sapiens) [compound 387] | ″++++″ (≧75% = ++++)
388 (SLTIDGIRYV; listed as Homo sapiens) [compound 388] | ″+++″ (≧50% = +++)
389 (LLADVTHLL; listed as Homo sapiens) [compound 389] | ″++″ (≧20% = ++)
392 (ALLHPQGFEV; listed as Homo sapiens) [compound 392] | ″++″ (≧20% = ++)
399 (YLFEPLYHV; listed as Homo sapiens) [compound 399] | ″+++″ (≧50% = +++)
400 (SLLTEQDLWTV; listed as Homo sapiens) [compound 400] | ″++″ (≧20% = ++)
401 (ILLDDTGLAYI; listed as Homo sapiens) [compound 401] | ″+++″ (≧50% = +++)
402 (VLFSGALLGL; listed as Homo sapiens) [compound 402] | ″++″ (≧20% = ++)
405 (ALYDVFLEV; listed as Homo sapiens) [compound 405] | ″++″ (≧20% = ++)
408 (VLDDSIYLV; listed as Homo sapiens) [compound 408] | ″++″ (≧20% = ++)
409 (LLDAMNYHL; listed as Homo sapiens) [compound 409] | ″++″ (≧20% = ++)
412 (YLDDLNEGVYI; listed as Homo sapiens) [compound 412] | ″++″ (≧20% = ++)
428 (KLGHTDILVGV; listed as Homo sapiens) [compound 428] | ″++″ (≧20% = ++)
430 (HLYSSIEHLTT; listed as Homo sapiens) [compound 430] | ″+++″ (≧50% = +++)
431 (SLVNVVPKL; listed as Homo sapiens) [compound 431] | ″++″ (≧20% = ++)
432 (TLIEESAKV; listed as Homo sapiens) [compound 432] | ″++″ (≧20% = ++)
433 (AMLNEPWAV; listed as Homo sapiens) [compound 433] | ″+++″ (≧50% = +++)
434 (KVSNSGITRV; listed as Homo sapiens) [compound 434] | ″++″ (≧20% = ++)
436 (HLAEVSAEV; listed as Homo sapiens) [compound 436] | ″+++″ (≧50% = +++)
438 (KLLPLAGLYL; listed as Homo sapiens) [compound 438] | ″++++″ (≧75% = ++++)
440 (ALADGVTMQV; listed as Homo sapiens) [compound 440] | ″++″ (≧20% = ++)
442 (GLLGGGGVLGV; listed as Homo sapiens) [compound 442] | ″+++″ (≧50% = +++)

Results, then the substance that gave them:

Peptide exchange | Substance
″+++″ (≧50% = +++) | 346 (LLDSKVPSV; listed as Homo sapiens) [compound 346]
″++++″ (≧75% = ++++) | 347 (SLFKHDPAAWEA; listed as Homo sapiens) [compound 347]
″++++″ (≧75% = ++++) | 349 (SLTEYLQNV; listed as Homo sapiens) [compound 349]
″+++″ (≧50% = +++) | 350 (ALLDVTHSELTV; listed as Homo sapiens) [compound 350]
″+++″ (≧50% = +++) | 352 (SLLELLHIYV; listed as Homo sapiens) [compound 352]
″++″ (≧20% = ++) | 354 (LILEGVDTV; listed as Homo sapiens) [compound 354]
″+++″ (≧50% = +++) | 359 (YLLPESVDL; listed as Homo sapiens) [compound 359]
″+++″ (≧50% = +++) | 362 (TLYGLSVLL; listed as Homo sapiens) [compound 362]
″++″ (≧20% = ++) | 363 (KVLDVSDLESV; listed as Homo sapiens) [compound 363]
″+++″ (≧50% = +++) | 366 (RLLDMGETDLML; listed as Homo sapiens) [compound 366]
″+++″ (≧50% = +++) | 369 (GLFPEHLIDV; listed as Homo sapiens) [compound 369]
″+++″ (≧50% = +++) | 370 (SLLQDLVSV; listed as Homo sapiens) [compound 370]
″++″ (≧20% = ++) | 375 (SLTETIEGV; listed as Homo sapiens) [compound 375]
″+++″ (≧50% = +++) | 378 (ALGYFVPYV; listed as Homo sapiens) [compound 378]
″++″ (≧20% = ++) | 382 (ALQNYIKEA; listed as Homo sapiens) [compound 382]
″+++″ (≧50% = +++) | 383 (ALLELENSVTL; listed as Homo sapiens) [compound 383]
″++″ (≧20% = ++) | 385 (SLLEQGLVEA; listed as Homo sapiens) [compound 385]

Peptide exchange | Substance
″+++″ (≧50% = +++) | 390 (ALFMKQIYL; listed as Homo sapiens) [compound 390]
″+++″ (≧50% = +++) | 391 (YVYPQRLNFV; listed as Homo sapiens) [compound 391]
″++″ (≧20% = ++) | 393 (GLLDTQTSQVLTA; listed as Homo sapiens) [compound 393]
″+++″ (≧50% = +++) | 394 (LLAVIGGLVYL; listed as Homo sapiens) [compound 394]
″+++″ (≧50% = +++) | 396 (ALLPDLPAL; listed as Homo sapiens) [compound 396]
″+++″ (≧50% = +++) | 397 (YLFGERLLEC; listed as Homo sapiens) [compound 397]
″++″ (≧20% = ++) | 398 (KLLEEDGTIITL; listed as Homo sapiens) [compound 398]
″++″ (≧20% = ++) | 403 (KLYDRILRV; listed as Homo sapiens) [compound 403]
″+++″ (≧50% = +++) | 407 (YLMDLINFL; listed as Homo sapiens) [compound 407]
″+++″ (≧50% = +++) | 426 (RLADKSVLV; listed as Homo sapiens) [compound 426]
″+++″ (≧50% = +++) | 427 (ALLPLSPYL; listed as Homo sapiens) [compound 427]
″++″ (≧20% = ++) | 429 (GLVNDLARV; listed as Homo sapiens) [compound 429]
″+++″ (≧50% = +++) | 437 (SMAPGLVIQAV; listed as Homo sapiens) [compound 437]
″+++″ (≧50% = +++) | 439 (YLLQEIYGI; listed as Homo sapiens) [compound 439]
″+++″ (≧50% = +++) | 441 (ALLENPKMEL; listed as Homo sapiens) [compound 441]
″+++″ (≧50% = +++) | 444 (GLLRDEALAEV; listed as Homo sapiens) [compound 444]
